B1: 301-17 (hybridoma-purified IgG3) (antibody, V domains shown)
VH: QVQLQQPGAELVKPGASVKMSCKASGYSFTSYWINWVKQRPGQGLEWIGDVHPGRGVSTYNAKFKSKATLTLDTSSSTAYMQLSSLTSEDSAVYYCSRSHGNTYWFFDVWGAGTTVTVSS
VL: DVLMTQTPLSLPVSLGDQASISCRSSQSIVHSNGNTYLEWYLQKPGQSPKLLIYKVSNRFSGVPDRFSGSGSGTDFTLKISRVEAEDLGVYYCFQGSHVPFTFGSGTKLEIK
notes: Mouse hybridoma monoclonal, IgG3
B2: Recombinant 301-17 IgG2a (antibody)
heavy: QVQLQQPGAELVKPGASVKMSCKASGYSFTSYWINWVKQRPGQGLEWIGDVHPGRGVSTYNAKFKSKATLTLDTSSSTAYMQLSSLTSEDSAVYYCSRSHGNTYWFFDVWGAGTTVTVSSAKTTAPSVYPLAPVCGDTTGSSVTLGCLVKGYFPEPVTLTWNSGSLSSGVHTFPAVLQSDLYTLSSSVTVTSSTWPSQSITCNVAHPASSTKVDKKIEPRGPTIKPCPPCKCPAPNLLGGPSVFIFPPKIKDVLMISLSPIVTCVVVDVSEDDPDVQISWFVNNVEVHTAQTQTHREDYNSTLRVVSALPIQHQDWMSGKEFKCKVNNKDLPAPIERTISKPKGSVRAPQVYVLPPPEEEMTKKQVTLTCMVTDFMPEDIYVEWTNNGKTELNYKNTEPVLDSDGSYFMYSKLRVEKKNWVERNSYSCSVVHEGLHNHHTTKSFSRTPGK
light: DVLMTQTPLSLPVSLGDQASISCRSSQSIVHSNGNTYLEWYLQKPGQSPKLLIYKVSNRFSGVPDRFSGSGSGTDFTLKISRVEAEDLGVYYCFQGSHVPFTFGSGTKLEIKRADAAPTVSIFPPSSEQLTSGGASVVCFLNNFYPKDINVKWKIDGSERQNGVLNSWTDQDSKDSTYSMSSTLTLTKDEYERHNSYTCEATHKTSTSPIVKSFNRNEC

Legend:
[1] = target: T1, commercially-prepared stable A-beta42 Oligomers (SynAging SAS) (human); assay: ProteOn biosensor, antibody captured with anti-mouse IgG or amine-coupled on GLM chip, AbO 12.3 nM to 1 µM; hybridoma-purified antibody
T1 construct: Bought oligomer preparation; also called AbO; SynAging AbO
Experimental: (§1) AbO 3 fold-dilutions were used: 1 μM, 0.33 μM, 0.11 μM, 37 nM, 12.3 nM. Assay buffer was PBS-E+Tween 20+2 mg/ml BSA.

[2] = target: T1, commercially-prepared stable A-beta42 …; assay: ProteOn biosensor, antibody captured with anti-mouse IgG or amine-coupled on GLM chip, AbO 12.3 nM to 1 µM; lower end of the printed range 16.2-19.5 nM; test or coupling not stated
Experimental: as §1

[3] = target: T1, commercially-prepared stable A-beta42 …; assay: ProteOn biosensor, antibody captured with anti-mouse IgG or amine-coupled on GLM chip, AbO 12.3 nM to 1 µM; upper end of the printed range 16.2-19.5 nM; test or coupling not stated
Experimental: as §1

[4] = target: T2, cyclo(CGHHQKG) conjugated to BSA (also: conjugated to BSA, site not given here); assay: ProteOn biosensor, antibody amine-coupled to GLH chip, cyclo-BSA 111 pM to 9 nM
T2 construct: also called Cyclic Peptide; cyclopeptide
T2 peptide: cyclo(CGHHQKG)
Experimental: Cyclo-BSA 3-fold dilutions were used from 9 nM to 111 pM. Assay buffer was PBS-E+0.05% Tween+10 mg/ml BSA.

T1 sequence (peptide, as listed by the source): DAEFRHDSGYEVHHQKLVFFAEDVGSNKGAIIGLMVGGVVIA

Binder | Kd [1] [nM] | Kd [2] [nM] | Kd [3] [nM] | Kd [4] [nM]
B1 | ~26.9 | – | – | –
B2 | – | 16.2 to 19.5 | 16.2 to 19.5 | ~0.017

Reference: US20250051428A1 (UNIVERSITY OF BRITISH COLUMBIA, published 2025)
